These results are taken from patent US20230242654A1 (published 2023).

A value given as a limit tells only on which side of the number the result lay.

The experiment has as its target anti-CD19 CAR having an scFv derived from FMC63 (expressed on T cells) (Mus musculus (Mouse), UniProt P01644 1-106). In words: cell-based or functional assay.

anti-CD19 CAR having an scFv derived from FMC63 (expressed on T cells), sequence (VH, as listed by the source, chain 1 of 2): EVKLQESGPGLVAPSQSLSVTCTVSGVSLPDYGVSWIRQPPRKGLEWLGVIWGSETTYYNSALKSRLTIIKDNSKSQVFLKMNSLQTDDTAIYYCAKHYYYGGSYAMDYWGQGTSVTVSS
anti-CD19 CAR having an scFv derived from FMC63 (expressed on T cells), sequence (P01644 other isoform, or with tags, fused parts or gaps, chain 2 of 2): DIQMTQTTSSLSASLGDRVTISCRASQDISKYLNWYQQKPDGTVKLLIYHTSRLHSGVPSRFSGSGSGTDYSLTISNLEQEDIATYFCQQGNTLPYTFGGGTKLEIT

B1: Anti-ID B-1 (FMC63-derived scFv-specific anti-idiotype antibody) (antibody, mouse IgG2a, kappa, V domains shown)
VH: EVQLQQSGPELVKPGASVKMSCKASGYTFTDYYMKWVKQCHGKSLEWIGDINPNNGGTDYNQNFKGKATLTVDKSSSTAYMQLNSLTSEDSAVYYCAREGNNYGSRDAMDYWGQGTSVTVSS
VL: QIVLTQSPALMSASPGEKVTMTCSASSGVIYMYWYQQKPRSSPKPWIYLTSNLASGVPARFSGSGSGTSYSLTISSMEAEDAATYYCQQWSSNPLTFGAGTKLELKR
Consider B1, for which the “fold expansion of CAR-expressing (EGFRt+) CD4+ T cells cultured alone with anti-ID B-1 conjugated beads, up to 9 days” value was more than 60 fold.
